Consider 1 molecule from paper PMC9106845 (2022).

The assay concerns the target T1, A02_YLQ peptide on HLA-A*02:01 (human).
T1 peptide: YLQPRTFLL
The assay can be described thus: multimer staining.

B1: 839 (TCR)
alpha TRAV12-1 TRAJ47 CDR3: CVVNRADKLVF
beta TRBV7-9 TRBJ2-2 CDR3: CASSDANTGELFF
Turning to B1, the binding result is “recognises”.
